Experimental findings from US20230391832A1 (ISOLERE BIO, published 2023) are described below.

Residue numbers refer to the chain shown, from its start.

First the molecules themselves.
B1: SEQ ID NO 53 (designed binder)
chain: MATGVRAVPGNENSLEIEELARFAVDEHNKKENALLEFVRVVKAKEQRARYYYVNRTMYYLTLEAKDGGKKKLYEAKVWVKWVIRGDSPANFKELQEFKLVGDA
notes: N-terminal Met printed as (M)
B2: SEQ ID NO 44 (designed binder)
chain: MATGVRAVPGNENSLEIEELARFAVDEHNKKENALLEFVRMVKAKEQYISVDKWVATMYYLTLEAKDGGKKKLYEAKVWVKYGGSCWRGGNFKELQEFKPVGDA
notes: N-terminal Met printed as (M)
B3: SEQ ID NO 30 (designed binder)
chain: MATGVRAVSGNENGLEIEELARFAVDEHNKKENALLEFVRVVKAKEQVVAGTMYYLTLEAKDGGKKKLYEAKVWVKRIVRVAVWVNFRELQEFKPVGDA
notes: N-terminal Met printed as (M)
B4: SEQ ID NO 26 (designed binder)
chain: MATGVRAVPGNENSLEIEELARFAVDEHNKKENALLEFVRVVKAKEQVVAGTMYYLTLEAKDGGKKKLYEAKVWVKIRAIVYWSGNFKELQEFKPVGDA
notes: N-terminal Met printed as (M)
B5: SEQ ID NO 49 (designed binder)
chain: B4 chain with I77S, R78V, V81R, Y82N, S84Y, G85W
notes: N-terminal Met printed as (M)
B6: SEQ ID NO 36 (designed binder)
chain: B4 chain with G10S, I77A, R78I, A79K, I80Y, Y82R, W83Y, S84K, G85A
notes: N-terminal Met printed as (M)
B7: SEQ ID NO 27 (designed binder)
chain: B4 chain with V42M, I77G, R78V, A79I, I80Y, V81A, W83S, S84Y, G85S
notes: N-terminal Met printed as (M)
B8: SEQ ID NO 39 (designed binder)
chain: B4 chain with I77W, I80V, V81R, Y82W, S84W
notes: N-terminal Met printed as (M)
B9: SEQ ID NO 46 (designed binder)
chain: B4 chain with R78G, A79I, I80P, V81I, Y82R, W83I, S84W, G85S
notes: N-terminal Met printed as (M)
B10: SEQ ID NO 51 (designed binder)
chain: B4 chain with I77V, A79Y, I80W, Y82D, W83R, S84R, G85K
notes: N-terminal Met printed as (M)
B11: SEQ ID NO 45 (designed binder)
chain: B4 chain with I77V, R78A, I80Y, V81P, Y82R, W83A, G85I
notes: N-terminal Met printed as (M)
B12: SEQ ID NO 33 (designed binder)
chain: B4 chain with I77V, A79R, I80D, V81I, Y82V, W83V, S84P, G85R
notes: N-terminal Met printed as (M)
B13: SEQ ID NO 40 (designed binder)
chain: B4 chain with I77V, R78V, A79G, I80K, V81W, Y82W, W83V, S84N, G85I
notes: N-terminal Met printed as (M)
B14: SEQ ID NO 38 (designed binder)
chain: B4 chain with I77S, R78A, A79S, I80Y, V81Y, Y82V, W83Y, G85Y
notes: N-terminal Met printed as (M)
B15: SEQ ID NO 32 (designed binder)
chain: B4 chain with I77S, A79S, I80V, V81R, Y82I, S84Y, G85S
notes: N-terminal Met printed as (M)
B16: SEQ ID NO 37 (designed binder)
chain: B4 chain with P9S, I77S, R78P, A79V, I80Y, V81W, Y82P, W83K, S84G
notes: N-terminal Met printed as (M)
B17: SEQ ID NO 29 (designed binder)
chain: B4 chain with I77A, R78A, A79G, I80Y, V81Y, Y82V, W83Y, S84A, G85P
notes: N-terminal Met printed as (M)
B18: SEQ ID NO 41 (designed binder)
chain: B4 chain with I77A, A79Y, I80V, W83Y, S84R, G85W
notes: N-terminal Met printed as (M)
B19: SEQ ID NO 50 (designed binder)
chain: B4 chain with I77V, A79R, I80Y, V81S, Y82P, W83P, S84N, G85R
notes: N-terminal Met printed as (M)
B20: SEQ ID NO 48 (designed binder)
chain: B4 chain with R40C, I77V, R78A, A79P, V81Y, Y82S, W83V, S84D, G85S
notes: N-terminal Met printed as (M)
B21: SEQ ID NO 34 (designed binder)
chain: B4 chain with G51C, G63D, I77S, A79V, I80R, Y82I, W83R, S84W
notes: N-terminal Met printed as (M)
B22: SEQ ID NO 47 (designed binder)
chain: B4 chain with I77V, R78N, A79I, I80Y, Y82I, W83S, S84P, G85R
notes: N-terminal Met printed as (M)
B23: SEQ ID NO 52 (designed binder)
chain: B4 chain with V8M, I77V, R78W, A79W, I80V, Y82S, W83D, S84P, G85A
notes: N-terminal Met printed as (M)
B24: SEQ ID NO 35 (designed binder)
chain: B4 chain with I77V, A79D, Y82S, W83I, S84R
notes: N-terminal Met printed as (M)
B25: SEQ ID NO 43 (designed binder)
chain: B4 chain with I77V, A79Y, I80P, V81P, Y82N, W83I, S84W, G85K
notes: N-terminal Met printed as (M)
B26: SEQ ID NO 42 (designed binder)
chain: B4 chain with I77G, A79Y, I80S, S84Y, G85V
notes: N-terminal Met printed as (M)
B27: SEQ ID NO 31 (designed binder)
chain: B4 chain with R78S, A79R, I80P, V81G, Y82W, S84P, G85W
notes: N-terminal Met printed as (M)
B28: SEQ ID NO 28 (designed binder)
chain: B4 chain with I77A, R78G, A79Y, V81G, Y82R, W83S, S84K, G85A
notes: N-terminal Met printed as (M)

This test concerns the target T1, AAV9 capsids (adeno-associated virus serotype 9, Assembled icosahedral capsid of about 60 subunits (VP1, VP2, VP3 from one gene). One VP1 chain is given. Example 1's screen does not say whether the capsids were full or empty.).
T1 construct: Assembled virus capsid
The test can be described thus: ELISA, AAV9 capsids coated on plate, His-tagged variant in E. coli lysate, anti-His-HRP luminescence; signal relative to HSA (A) or to PKD2 control (B).
As for MCAIDNFPCNWYIDCIGATWVCDGIIDCIDIADEYDCTPTP (designed binder, N-terminal Met printed as (M)) [SEQ ID NO 12], the “fold specificity for AAV9 capsids” value is greater than 3 fold.

As for B1, the “fold specificity for AAV9 capsids” value is greater than 3 fold.

In the case of B2, the “fold specificity for AAV9 capsids” value was greater than 3 fold.

For B3, the “fold specificity for AAV9 capsids” value was greater than 3 fold.

As for B4, the “fold specificity for AAV9 capsids” value was greater than 3 fold.

For B5, the “fold specificity for AAV9 capsids” value was greater than 3 fold.

B6: the “fold specificity for AAV9 capsids” value is greater than 3 fold.

With B7, the “fold specificity for AAV9 capsids” value was greater than 3 fold.

Regarding B8, the “fold specificity for AAV9 capsids” value was greater than 3 fold.

On to B9, for which the “fold specificity for AAV9 capsids” value was greater than 3 fold.

Turning to B10, the “fold specificity for AAV9 capsids” value was greater than 3 fold.

B11: the “fold specificity for AAV9 capsids” value is greater than 3 fold.

For the molecule B12, the “fold specificity for AAV9 capsids” value was greater than 3 fold.

Take B13: the “fold specificity for AAV9 capsids” value is greater than 3 fold.

Take B14: the “fold specificity for AAV9 capsids” value was greater than 3 fold.

B15: the “fold specificity for AAV9 capsids” value was greater than 3 fold.

As for B16, the “fold specificity for AAV9 capsids” value was greater than 3 fold.

Take B17: the “fold specificity for AAV9 capsids” value is greater than 3 fold.

For the molecule B18, the “fold specificity for AAV9 capsids” value is greater than 3 fold.

For the molecule B19, the “fold specificity for AAV9 capsids” value is greater than 3 fold.

On to B20, for which the “fold specificity for AAV9 capsids” value is greater than 3 fold.

On to B21, for which the “fold specificity for AAV9 capsids” value was greater than 3 fold.

B22: the “fold specificity for AAV9 capsids” value is greater than 3 fold.

With B23, the “fold specificity for AAV9 capsids” value is greater than 3 fold.

As for B24, the “fold specificity for AAV9 capsids” value was greater than 3 fold.

On to B25, for which the “fold specificity for AAV9 capsids” value is greater than 3 fold.

For B26, the “fold specificity for AAV9 capsids” value is greater than 3 fold.

Regarding B27, the “fold specificity for AAV9 capsids” value was greater than 3 fold.

Regarding B28, the “fold specificity for AAV9 capsids” value is greater than 3 fold.

As to MCWVKIFRCNIVGVCIVNTWVCDGRVDCSDPPDEGWCTPTP (designed binder, N-terminal Met printed as (M)) [SEQ ID NO 11], the “fold specificity for AAV9 capsids” value is greater than 3 fold.

Turning to MCDIPPFVCWWPSWCVWATWVCDGAPDCIDNYDEWICTPTP (designed binder, N-terminal Met printed as (M)) [SEQ ID NO 10], the “fold specificity for AAV9 capsids” value is greater than 3 fold.
